Results as given in the RNAGym collection of RNA variant scans (doi:10.1093/molbev/msab373).

B1: Azoarcus group I ribozyme (parent)
chain: GUGCCUUGCGCCGGGAAACCACGCAAGGGAUGGUGUCAAAUUCGGCGAAACCUAAGCGCCCGCCCGGGCGUAUGGCAACGCCGAGCCAAGCUUCGGCGCCUGCGCCGAUGAAGGUGUAGAGACUAGACGGCACCCACCUAAGGCAAACGCUAUGGUGAAGGCAUAGUCCAGGGAGUGGCGAAAGUCACACAAACCGG

Variants of: B1
Test: reverse-splicing fitness (ratio to wild type); higher = more active; in vitro selection; Mg2+ level not given
Outline: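 An in vitro group I ribozyme library with randomized positions was T7-transcribed and gel-purified. In triplicate, 10 pmol RNA in EPPS pH 7.5 was reacted with 50 pmoles of a 30-nt RNA substrate for 1 h at 37 °C across several added MgCl2 levels (1–48 mM), then stopped with EDTA. Products were reverse transcribed from a substrate-complementary primer, PCR-amplified and sequenced (HiSeq 4000). Fitness is a variant's read proportion after selection over that before, normalised to wild type.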

Point of comparison: C82G A111U A120C C150A U176A, reverse-splicing fitness 0.0138. Against it:
- C82G A111U A120G A145G C150G C169U U176A — lower, 0.0116
- C82G A111U A120G A145G C169G U176A — higher, 0.0166
- C82G A111U A120G A145G C169G U176C — higher, 0.0235
- C82G A111U A120G A145G C169G U176G — lower, 0.00429
- C82G A111U A120G C150U U176G — lower, 0.011
- C82G A111U A120G C150U U176C — higher, 0.0178
- C82G A111U A120G C150U U176A — lower, 0.0111
- C82G A111U A120G A145U C150G C169U U176A — lower, 0.0111
- C82G A111U A120G A145U C150G C169U U176C — lower, 0.013
- C82G A111U A120G A145U C150G C169U U176G — lower, 0.00505
- C82G A111U A120G A145U C150U U176C — higher, 0.0175
- C82G A111U A120G A145U C150U U176G — lower, 0.00663
- C82G A111U A120G A145U C150U U176A — lower, 0.0118
- C82G A111U A120G A145C C150U U176C — lower, 0.012
- C82G A111U A120G A145C C150U U176G — lower, 0.00601
- C82G A111U A120G A145C C150U U176A — lower, 0.00941
- C82G A111U A120G C169A — lower, 0.00993
- C82G A111U A120G C169G — higher, 0.014
- C82G A111U A120G C169U — lower, 0.0106
- C82G A111U A120G A145C C169A U176C — lower, 0.00976
- C82G A111U A120G A145C C169A U176G — lower, 0.00399
- C82G A111U A120G A145C C169A U176A — higher, 0.0152
- C82G A111U A120G A145U C150A C169U U176C — higher, 0.0142
- C82G A111U A120G A145U C150A C169U U176A — higher, 0.0183
- C82G A111U A120G A145U C150A C169U U176G — lower, 0.00528
- C82G A111U A120G A145G C169A U176G — lower, 0.00491
- C82G A111U A120G A145G C169A U176C — higher, 0.0214
- C82G A111U A120G A145G C169A U176A — higher, 0.0172
- C82G A111U A120G A145U C150U C169A U176G — lower, 0.00501
- C82G A111U A120G A145U C150U C169A U176A — higher, 0.0149
- C82G A111U A120G A145U C150U C169A U176C — lower, 0.0128
- C82G A111U A120G A145G C150A C169U U176A — higher, 0.0204
- C82G A111U A120G A145G C150A C169U U176G — lower, 0.00642
- C82G A111U A120G A145G C150A C169U U176C — higher, 0.0177
- C82G A111U A120G C150A C169U U176A — higher, 0.0244
- C82G A111U A120G C150A C169U U176C — higher, 0.0215
- C82G A111U A120G C150A C169U U176G — lower, 0.00759
- C82G A111U A120G A145C C150A — lower, 0.00696
- C82G A111U A120G A145C C150U — lower, 0.00849
- C82G A111U A120G A145C C150G — lower, 0.00659
- C82G A111U A120C C169U U176G — lower, 0.00561
- C82G A111U A120C C169U U176C — higher, 0.0166
- C82G A111U A120C C169U U176A — higher, 0.0163
- C82G A111U A120G A145G C150U C169G U176A — lower, 0.0137
- C82G A111U A120G A145G C150U C169G U176G — lower, 0.00526
- C82G A111U A120G A145G C150U C169G U176C — higher, 0.0192
- C82G A111U A120G C169U U176A — higher, 0.0197
- C82G A111U A120G C169U U176C — higher, 0.0179
- C82G A111U A120G C169U U176G — lower, 0.00589
- C82G A111U A120G — higher, 0.0168
- C82G A111U A120U — higher, 0.0462
- C82G A111U A120G A145C C150G C169U U176C — lower, 0.0123
- C82G A111U A120G A145C C150G C169U U176A — lower, 0.0121
- C82G A111U A120G A145C C150G C169U U176G — lower, 0.00569
- C82G A111U A120G A145U C169U U176C — higher, 0.0158
- C82G A111U A120G A145U C169U U176A — higher, 0.0185
- C82G A111U A120G A145U C169U U176G — lower, 0.00419
- C82G A111U A120G A145U C150A C169G U176G — lower, 0.00501
- C82G A111U A120G A145U C150A C169G U176C — higher, 0.0163
- C82G A111U A120G A145U C150A C169G U176A — higher, 0.0162
- C82G A111U A120C C150G C169A U176C — higher, 0.0141
- C82G A111U A120C C150G C169A U176A — lower, 0.0137
- C82G A111U A120C C150G C169A U176G — lower, 0.00844
- C82G A111U A120G A145G U176A — lower, 0.0125
- C82G A111U A120G A145G U176C — higher, 0.0176
- C82G A111U A120G A145G U176G — lower, 0.0077
- C82G A111U A120G A145C C150A C169U — lower, 0.00694
- C82G A111U A120G A145C C150A C169A — lower, 0.00828
- C82G A111U A120G A145C C150A C169G — lower, 0.00827
- C82G A111U A120G A145U U176A — the same, 0.0138
- C82G A111U A120G A145U U176C — higher, 0.0193
- C82G A111U A120G A145U U176G — lower, 0.00635
- C82G A111U A120C C150U C169A U176C — the same, 0.0138
- C82G A111U A120C C150U C169A U176A — higher, 0.0158
- C82G A111U A120C C150U C169A U176G — lower, 0.00644
- C82G A111U A120C C150U U176G — lower, 0.00892
- C82G A111U A120C C150U U176A — lower, 0.0133
- C82G A111U A120C C150U U176C — higher, 0.0248
- C82G A111U A120C C150A U176G — lower, 0.0115
- C82G A111U A120C C150A U176C — higher, 0.0231
- C82G A111U A120U A145C C150A C169A U176A — lower, 0.00214
- C82G A111U A120U A145C C150A C169A U176C — lower, 0.00215
- C82G A111U A120U A145C C150A C169A U176G — lower, 0.0022
